Laboratory results taken from US20240059785A1 (QILU PUGET SOUND BIOTHERAPEUTICS, published 2024).

Assays:
[1] = target: T1, human CD20 (Homo sapiens CD20) (Homo sapiens, UniProt P11836 1-297); test: FACS on CHO cells stably expressing hCD20 (CD20/CHO), EC50 of Geo MFI
T1 construct: Multi-pass cell surface antigen; present on Raji, Ramos, WSU-DLCL2 cells, human CD19+ B cells, or on stably transfected CHO cells (CD20/CHO); also called hCD20
T1 sequence: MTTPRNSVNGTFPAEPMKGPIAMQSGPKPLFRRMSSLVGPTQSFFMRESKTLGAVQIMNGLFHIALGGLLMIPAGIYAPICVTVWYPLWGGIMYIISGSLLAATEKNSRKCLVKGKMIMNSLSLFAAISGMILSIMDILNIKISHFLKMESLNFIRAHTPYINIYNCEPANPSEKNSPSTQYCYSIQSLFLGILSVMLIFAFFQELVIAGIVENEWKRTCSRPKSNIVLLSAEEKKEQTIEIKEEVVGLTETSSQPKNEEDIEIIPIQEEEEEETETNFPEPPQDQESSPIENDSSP
Description: (§1) The tubes were incubated with shaking for one hour at RT, washed once with 3 mL of FACS buffer, and resuspended in 100 μl of FACS blocking buffer containing 5 μg/mL of the various anti-CD20 antibodies to be tested. The cells were incubated together with the antibodies for 30 minutes at room temperature. […] The tubes were shaken at RT for 30 minutes at 200 rpm and then washed twice in FACS buffer. The cells were then fixed in 2% formaldehyde in phosphate buffered saline (PBS) containing 2% fetal bovine serum (FBS) and subjected to FACS analysis in a FACSCalibur™ benchtop analyzer (BD Biosciences).
CHO cells were transfected hCD20 and, independently, with hCD37. Two cell lines, one stably expressing hCD20 (CD20/CHO) and the other stably expressing hCD37 (CD37/CH0), were derived from these transfectants. […] The cell lines used were CD20/CHO and CD37/CHO as explained above, rather than Raji cells. Cells were centrifuged for 5 minutes at 1500 rpm for washing, rather than 3 minutes at 1500 rpm. After washing, the cells and primary antibodies were incubated together in a volume of 50 μL rather than 100 μL. Primary antibodies were added at various concentrations to create a dose/response curve, rather than all antibodies being at a concentration of 5 μg/mL.

[2] = target: T2, human CD37 (Homo sapiens CD37) (Homo sapiens, UniProt P11049 1-281); test: FACS on CHO cells stably expressing hCD37 (CD37/CHO)
T2 construct: Multi-pass cell surface antigen; present on Raji, Ramos, WSU-DLCL2 cells, human B cells, or on stably transfected CHO cells (CD37/CHO); also called hCD37
T2 sequence: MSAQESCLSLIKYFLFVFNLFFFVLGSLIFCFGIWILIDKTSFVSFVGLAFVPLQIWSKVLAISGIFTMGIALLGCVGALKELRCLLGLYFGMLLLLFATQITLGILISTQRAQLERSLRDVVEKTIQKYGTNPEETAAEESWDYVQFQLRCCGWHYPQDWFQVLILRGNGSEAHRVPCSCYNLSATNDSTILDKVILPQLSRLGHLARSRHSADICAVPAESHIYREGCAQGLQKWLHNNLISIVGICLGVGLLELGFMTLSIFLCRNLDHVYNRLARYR
Description: as §1
CHO cells were transfected hCD20 and, independently, with hCD37. Two cell lines, one stably expressing hCD20 (CD20/CHO) and the other stably expressing hCD37 (CD37/CH0), were derived from these transfectants. […] The cell lines used were CD20/CHO and CD37/CHO as explained above, rather than Raji cells. Cells were centrifuged for 5 minutes at 1500 rpm for washing, rather than 3 minutes at 1500 rpm.

EC50 [1]: 5.02 nM
B1: anti-hCD20 Ab1.2.2.1 (antibody, human IgG4 S228P, kappa)
heavy: QVQLVQSGAEVKKPGSSVKVSCKASGYTFTSYNMHWVRQAPGQGLEWMGAIYPGNGDTSYNQKFQGRVTLTVDKSSSTAYMELSSLRSEDTAVYFCARVVYYSNSYWYFDVWGTGTMVTVSSASTKGPSVFPLAPCSRSTSESTAALGCLVKDYFPEPVTVSWNSGALTSGVHTFPAVLQSSGLYSLSSVVTVPSSSLGTKTYTCNVDHKPSNTKVDKRVESKYGPPCPPCPAPELLGGPDVFLFPPKPKDTLMISRTPEVTCVVVDVSHEDPEVKFNWYVDGVEVHNAKTKPREEQYNATYRVVSVLTVLHQDWLNGKEYKCKVSNKALPAPIEKTISKAKGQPREPQVYTLPPSREEMTKNQVSLTCLVKGFYPSDIAVEWESNGQPENNYKTTPPVLRSDGSFFLYSELTVDKSRWQQGNVFSCSVMHEALHNHYTQKSLSLSPGK
light: EIVLTQSPDFQSVTPKEKVTITCRASSSVSYMHWYQQKPDQSPKPLIYAPSNLASGVPSRFSGSGSGTDYTLTINSLEAEDAATYYCQQWSFNPPTFGAGTKLEIKRTVAAPSVFIFPPSDEQLKSGTASVVCLLNNFYPREAKVQWKVDNALQSGNSQESVTEQDSKDSTYSLSSTLTLSKADYEKHKVYACEVTHQGLSSPVTKSFNRGEC
notes: Ab1.2.2 with D399R and K409E in the CH3; also called α-CD20 Ab1.2.2.1
binding result [2]: no binding (tested: about 0.0002 nM to about 30 nM)
